# Laboratory results published in the supplement of paper PMC9876800.
# System: peptide library, one residue held at a place counted from the S/T acceptor
# Assay: relative phosphorylation of the sub-library (ratio to the mean residue at this position); human; higher = residue favoured
# Conditions: E fixed; at +4
# Summary of the method: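 Relative sub-library phosphorylation is the ratio of each sub-library's signal to the mean residue at that position. The signal came from phosphorimaging of spots on streptavidin membranes, quantified by densitometry, after purified recombinant kinases reacted with biotinylated degenerate peptide sub-libraries in 384-well plates. Reactions held 50 μM peptide and 50 μM ATP spiked with γ-32P-ATP for 90 min under kinase-specific conditions.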
# Chain of CAMK1, construct: Full length (Q14012 whole entry, looked up): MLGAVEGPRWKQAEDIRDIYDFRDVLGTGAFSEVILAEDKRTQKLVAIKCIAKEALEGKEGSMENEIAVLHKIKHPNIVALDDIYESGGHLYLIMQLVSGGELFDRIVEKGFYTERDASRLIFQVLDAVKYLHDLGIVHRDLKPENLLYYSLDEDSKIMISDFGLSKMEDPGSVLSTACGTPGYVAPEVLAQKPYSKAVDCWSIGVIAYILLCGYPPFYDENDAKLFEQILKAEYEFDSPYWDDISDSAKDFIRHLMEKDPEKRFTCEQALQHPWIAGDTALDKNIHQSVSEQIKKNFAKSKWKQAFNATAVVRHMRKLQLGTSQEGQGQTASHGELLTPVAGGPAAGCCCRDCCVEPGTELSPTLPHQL
# Chain of MAP4K3, construct: aa1-380 (Q8IVH8 1-380, looked up): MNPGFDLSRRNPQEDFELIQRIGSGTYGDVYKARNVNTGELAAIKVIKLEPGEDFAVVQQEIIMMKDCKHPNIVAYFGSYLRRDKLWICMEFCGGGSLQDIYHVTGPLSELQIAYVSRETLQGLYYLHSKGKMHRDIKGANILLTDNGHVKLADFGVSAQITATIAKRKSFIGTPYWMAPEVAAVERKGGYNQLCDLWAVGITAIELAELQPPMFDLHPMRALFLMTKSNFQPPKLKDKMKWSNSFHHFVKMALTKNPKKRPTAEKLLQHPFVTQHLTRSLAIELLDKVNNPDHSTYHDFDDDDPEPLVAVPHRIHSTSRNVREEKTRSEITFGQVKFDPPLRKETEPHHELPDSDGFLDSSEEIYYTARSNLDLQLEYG
# Chain of TTBK1, construct: Full length (Q5TCY1 whole entry, looked up): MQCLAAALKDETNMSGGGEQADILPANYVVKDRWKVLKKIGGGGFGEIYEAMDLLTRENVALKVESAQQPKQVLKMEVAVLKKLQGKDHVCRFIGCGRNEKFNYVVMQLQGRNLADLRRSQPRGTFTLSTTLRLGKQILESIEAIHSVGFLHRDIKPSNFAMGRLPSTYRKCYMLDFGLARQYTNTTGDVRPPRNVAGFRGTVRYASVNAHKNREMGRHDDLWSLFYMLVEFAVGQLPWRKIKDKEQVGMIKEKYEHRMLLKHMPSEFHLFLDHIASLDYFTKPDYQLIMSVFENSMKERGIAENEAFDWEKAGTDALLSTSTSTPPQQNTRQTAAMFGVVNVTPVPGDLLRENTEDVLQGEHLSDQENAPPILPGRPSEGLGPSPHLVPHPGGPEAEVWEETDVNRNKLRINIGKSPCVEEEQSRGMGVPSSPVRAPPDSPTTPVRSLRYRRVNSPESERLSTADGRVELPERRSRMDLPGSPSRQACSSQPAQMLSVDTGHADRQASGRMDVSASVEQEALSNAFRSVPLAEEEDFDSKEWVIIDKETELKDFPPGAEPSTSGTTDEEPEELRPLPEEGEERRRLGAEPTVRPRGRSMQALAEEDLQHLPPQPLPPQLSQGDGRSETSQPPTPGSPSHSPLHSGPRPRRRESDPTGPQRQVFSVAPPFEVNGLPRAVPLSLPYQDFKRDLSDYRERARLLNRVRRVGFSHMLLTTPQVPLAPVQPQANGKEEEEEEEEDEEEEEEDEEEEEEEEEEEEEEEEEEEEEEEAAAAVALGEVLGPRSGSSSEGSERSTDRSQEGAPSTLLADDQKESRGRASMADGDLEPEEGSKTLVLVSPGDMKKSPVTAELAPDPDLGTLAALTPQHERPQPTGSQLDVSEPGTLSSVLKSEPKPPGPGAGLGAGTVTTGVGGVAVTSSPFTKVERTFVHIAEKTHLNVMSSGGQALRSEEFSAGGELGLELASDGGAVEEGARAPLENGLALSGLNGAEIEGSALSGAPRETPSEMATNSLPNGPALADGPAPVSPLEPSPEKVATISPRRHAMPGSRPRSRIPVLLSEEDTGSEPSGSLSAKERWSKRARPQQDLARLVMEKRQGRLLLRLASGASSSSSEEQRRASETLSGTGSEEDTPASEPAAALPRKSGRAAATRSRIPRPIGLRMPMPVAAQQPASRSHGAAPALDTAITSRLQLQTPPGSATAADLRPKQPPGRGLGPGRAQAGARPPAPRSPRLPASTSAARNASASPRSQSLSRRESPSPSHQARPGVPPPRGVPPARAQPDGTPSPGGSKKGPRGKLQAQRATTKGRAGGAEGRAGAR
# Chain of CHEK2, construct: Full length (O96017 whole entry, looked up): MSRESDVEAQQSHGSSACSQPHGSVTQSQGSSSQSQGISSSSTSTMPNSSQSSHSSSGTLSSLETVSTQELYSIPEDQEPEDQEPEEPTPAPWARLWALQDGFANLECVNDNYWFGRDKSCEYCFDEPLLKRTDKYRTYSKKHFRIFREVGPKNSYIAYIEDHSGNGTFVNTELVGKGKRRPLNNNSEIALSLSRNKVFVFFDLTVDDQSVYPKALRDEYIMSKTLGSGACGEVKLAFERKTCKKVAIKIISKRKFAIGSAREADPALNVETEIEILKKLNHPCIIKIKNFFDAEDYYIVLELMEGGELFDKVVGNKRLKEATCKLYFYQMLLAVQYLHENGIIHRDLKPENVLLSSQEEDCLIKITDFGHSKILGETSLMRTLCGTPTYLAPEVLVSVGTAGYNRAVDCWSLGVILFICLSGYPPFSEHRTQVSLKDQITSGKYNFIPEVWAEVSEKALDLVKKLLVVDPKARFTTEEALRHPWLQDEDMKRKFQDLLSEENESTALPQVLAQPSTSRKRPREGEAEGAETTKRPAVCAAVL
# Chain of EIF2AK1, construct: Full length (Q9BQI3 whole entry, looked up): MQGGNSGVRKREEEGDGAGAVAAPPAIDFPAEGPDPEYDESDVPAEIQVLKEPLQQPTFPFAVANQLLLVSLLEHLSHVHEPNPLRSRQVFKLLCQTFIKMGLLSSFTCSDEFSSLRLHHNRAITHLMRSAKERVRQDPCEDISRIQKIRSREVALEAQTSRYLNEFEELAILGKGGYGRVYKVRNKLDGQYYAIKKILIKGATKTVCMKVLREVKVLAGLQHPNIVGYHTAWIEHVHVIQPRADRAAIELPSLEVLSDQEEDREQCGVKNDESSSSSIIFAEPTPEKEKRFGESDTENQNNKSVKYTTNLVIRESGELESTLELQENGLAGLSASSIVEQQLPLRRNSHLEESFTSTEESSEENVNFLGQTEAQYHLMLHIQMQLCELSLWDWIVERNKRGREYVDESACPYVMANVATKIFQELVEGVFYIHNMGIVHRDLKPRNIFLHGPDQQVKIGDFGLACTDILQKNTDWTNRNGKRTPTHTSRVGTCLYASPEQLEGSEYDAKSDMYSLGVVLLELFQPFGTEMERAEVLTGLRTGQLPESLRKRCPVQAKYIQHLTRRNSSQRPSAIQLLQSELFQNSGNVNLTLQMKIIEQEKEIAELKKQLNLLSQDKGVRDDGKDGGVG
# Chain of MOK, construct: aa1-343 (Q9UQ07 1-343, looked up): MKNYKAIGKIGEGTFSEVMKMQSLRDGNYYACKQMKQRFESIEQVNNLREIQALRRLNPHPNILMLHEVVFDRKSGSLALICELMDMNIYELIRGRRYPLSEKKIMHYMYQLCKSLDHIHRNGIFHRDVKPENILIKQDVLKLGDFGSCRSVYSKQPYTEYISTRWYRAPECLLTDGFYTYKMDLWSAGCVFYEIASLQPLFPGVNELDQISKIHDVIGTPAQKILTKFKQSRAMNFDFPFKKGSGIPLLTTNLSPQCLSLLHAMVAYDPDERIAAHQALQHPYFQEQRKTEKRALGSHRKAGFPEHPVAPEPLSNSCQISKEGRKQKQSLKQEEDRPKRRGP
# Chain of MAP3K10, construct: aa1-449 (Q02779 1-449, looked up): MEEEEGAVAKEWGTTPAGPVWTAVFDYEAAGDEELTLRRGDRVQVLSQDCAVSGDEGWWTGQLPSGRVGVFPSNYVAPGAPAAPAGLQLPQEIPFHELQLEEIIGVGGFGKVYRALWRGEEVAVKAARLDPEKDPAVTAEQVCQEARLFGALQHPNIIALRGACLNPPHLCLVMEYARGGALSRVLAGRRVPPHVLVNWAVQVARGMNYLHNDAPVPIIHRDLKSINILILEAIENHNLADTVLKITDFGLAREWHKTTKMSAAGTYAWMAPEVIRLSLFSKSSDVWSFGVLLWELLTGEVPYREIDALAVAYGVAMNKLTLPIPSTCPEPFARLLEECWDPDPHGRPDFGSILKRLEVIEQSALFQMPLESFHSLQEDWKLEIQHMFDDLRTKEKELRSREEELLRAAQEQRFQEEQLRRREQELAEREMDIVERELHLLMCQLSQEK
row,Substance,relative phosphorylation
1,"MAP4K3, construct: aa1-380 (from UniProt Q8IVH8)",0.592
2,"CAMK1, construct: Full length (from UniProt Q14012)",0.628
3,"MAP3K10, construct: aa1-449 (from UniProt Q02779)",0.573
4,"EIF2AK1, construct: Full length (from UniProt Q9BQI3)",0.565
5,"PKN3, construct: Full length (from UniProt Q6P5Z2)",0.887

# Same assay, conditions: E fixed; at -1
row,Substance,relative phosphorylation
1,"MOK, construct: aa1-343 (from UniProt Q9UQ07)",0.332
2,"TTBK1, construct: Full length (from UniProt Q5TCY1)",0.391
3,"CHEK2, construct: Full length (from UniProt O96017)",0.383
4,"MAP4K3, construct: aa1-380 (from UniProt Q8IVH8)",0.437
5,"CAMK1, construct: Full length (from UniProt Q14012)",0.483
6,"MAP3K10, construct: aa1-449 (from UniProt Q02779)",0.65
7,"EIF2AK1, construct: Full length (from UniProt Q9BQI3)",1.01
8,"PKN3, construct: Full length (from UniProt Q6P5Z2)",1.06

# Same assay, conditions: E fixed; at -2
row,Substance,relative phosphorylation
1,"MOK, construct: aa1-343 (from UniProt Q9UQ07)",0.208
2,"TTBK1, construct: Full length (from UniProt Q5TCY1)",1.14
3,"CHEK2, construct: Full length (from UniProt O96017)",0.785
4,"MAP4K3, construct: aa1-380 (from UniProt Q8IVH8)",0.406
5,"CAMK1, construct: Full length (from UniProt Q14012)",0.322
6,"MAP3K10, construct: aa1-449 (from UniProt Q02779)",0.584
7,"EIF2AK1, construct: Full length (from UniProt Q9BQI3)",2.47
8,"PKN3, construct: Full length (from UniProt Q6P5Z2)",0.791

# Same assay, conditions: E fixed; at -3
row,Substance,relative phosphorylation
1,"MOK, construct: aa1-343 (from UniProt Q9UQ07)",0.246
2,"TTBK1, construct: Full length (from UniProt Q5TCY1)",0.832
3,"CHEK2, construct: Full length (from UniProt O96017)",0.136
4,"MAP4K3, construct: aa1-380 (from UniProt Q8IVH8)",0.569
5,"CAMK1, construct: Full length (from UniProt Q14012)",0.178
6,"MAP3K10, construct: aa1-449 (from UniProt Q02779)",0.827
7,"EIF2AK1, construct: Full length (from UniProt Q9BQI3)",0.857
8,"PKN3, construct: Full length (from UniProt Q6P5Z2)",0.504

# Same assay, conditions: E fixed; at -4
row,Substance,relative phosphorylation
1,"MOK, construct: aa1-343 (from UniProt Q9UQ07)",0.506
2,"TTBK1, construct: Full length (from UniProt Q5TCY1)",0.75
3,"CHEK2, construct: Full length (from UniProt O96017)",0.839
4,"MAP4K3, construct: aa1-380 (from UniProt Q8IVH8)",0.894
5,"CAMK1, construct: Full length (from UniProt Q14012)",0.542
6,"MAP3K10, construct: aa1-449 (from UniProt Q02779)",0.909
7,"EIF2AK1, construct: Full length (from UniProt Q9BQI3)",0.724
8,"PKN3, construct: Full length (from UniProt Q6P5Z2)",1.12

# Same assay, conditions: E fixed; at -5
row,Substance,relative phosphorylation
1,"MOK, construct: aa1-343 (from UniProt Q9UQ07)",0.552
2,"TTBK1, construct: Full length (from UniProt Q5TCY1)",0.582
3,"CHEK2, construct: Full length (from UniProt O96017)",0.307
4,"MAP4K3, construct: aa1-380 (from UniProt Q8IVH8)",0.687
5,"CAMK1, construct: Full length (from UniProt Q14012)",0.189
6,"MAP3K10, construct: aa1-449 (from UniProt Q02779)",0.764
7,"EIF2AK1, construct: Full length (from UniProt Q9BQI3)",0.619
8,"PKN3, construct: Full length (from UniProt Q6P5Z2)",0.719

# Same assay, conditions: F fixed; at +1
row,Substance,relative phosphorylation
1,"MOK, construct: aa1-343 (from UniProt Q9UQ07)",0.2
2,"TTBK1, construct: Full length (from UniProt Q5TCY1)",2.09
3,"CHEK2, construct: Full length (from UniProt O96017)",1.88
4,"MAP4K3, construct: aa1-380 (from UniProt Q8IVH8)",1.09
5,"CAMK1, construct: Full length (from UniProt Q14012)",2.41
6,"MAP3K10, construct: aa1-449 (from UniProt Q02779)",1.53
7,"EIF2AK1, construct: Full length (from UniProt Q9BQI3)",1.5
8,"PKN3, construct: Full length (from UniProt Q6P5Z2)",4.24

# Same assay, conditions: F fixed; at +2
row,Substance,relative phosphorylation
1,"MOK, construct: aa1-343 (from UniProt Q9UQ07)",0.836
2,"TTBK1, construct: Full length (from UniProt Q5TCY1)",1.42
3,"CHEK2, construct: Full length (from UniProt O96017)",1.06
4,"MAP4K3, construct: aa1-380 (from UniProt Q8IVH8)",0.464
5,"CAMK1, construct: Full length (from UniProt Q14012)",1.16
6,"MAP3K10, construct: aa1-449 (from UniProt Q02779)",0.602
7,"EIF2AK1, construct: Full length (from UniProt Q9BQI3)",0.874
8,"PKN3, construct: Full length (from UniProt Q6P5Z2)",0.552

# Same assay, conditions: F fixed; at +3
row,Substance,relative phosphorylation
1,"MOK, construct: aa1-343 (from UniProt Q9UQ07)",1.02
2,"TTBK1, construct: Full length (from UniProt Q5TCY1)",1.49
3,"CHEK2, construct: Full length (from UniProt O96017)",1.33
4,"MAP4K3, construct: aa1-380 (from UniProt Q8IVH8)",0.536
5,"CAMK1, construct: Full length (from UniProt Q14012)",1.44
6,"MAP3K10, construct: aa1-449 (from UniProt Q02779)",1.19
7,"EIF2AK1, construct: Full length (from UniProt Q9BQI3)",1.3
8,"PKN3, construct: Full length (from UniProt Q6P5Z2)",0.883

# Same assay, conditions: F fixed; at +4
row,Substance,relative phosphorylation
1,"MOK, construct: aa1-343 (from UniProt Q9UQ07)",0.891
2,"TTBK1, construct: Full length (from UniProt Q5TCY1)",1.32
3,"CHEK2, construct: Full length (from UniProt O96017)",0.985
4,"MAP4K3, construct: aa1-380 (from UniProt Q8IVH8)",0.71
5,"CAMK1, construct: Full length (from UniProt Q14012)",1.44
6,"MAP3K10, construct: aa1-449 (from UniProt Q02779)",0.779
7,"EIF2AK1, construct: Full length (from UniProt Q9BQI3)",0.975
8,"PKN3, construct: Full length (from UniProt Q6P5Z2)",0.671

# Same assay, conditions: F fixed; at -1
row,Substance,relative phosphorylation
1,"MOK, construct: aa1-343 (from UniProt Q9UQ07)",0.786
2,"TTBK1, construct: Full length (from UniProt Q5TCY1)",1.99
3,"CHEK2, construct: Full length (from UniProt O96017)",0.809
4,"MAP4K3, construct: aa1-380 (from UniProt Q8IVH8)",0.692
5,"CAMK1, construct: Full length (from UniProt Q14012)",0.637
6,"MAP3K10, construct: aa1-449 (from UniProt Q02779)",1.05
7,"EIF2AK1, construct: Full length (from UniProt Q9BQI3)",1.09
8,"PKN3, construct: Full length (from UniProt Q6P5Z2)",0.682
